Earlier results as cited in article PMC5010500 (Journal of molecular biology, 2016).

Molecular target: Keap1 Kelch domain (Homo sapiens) (UniProt Q14145)
Test: ITC
Details: cited from earlier work

Keap1 Kelch domain (Homo sapiens), sequence (Q14145 321-609): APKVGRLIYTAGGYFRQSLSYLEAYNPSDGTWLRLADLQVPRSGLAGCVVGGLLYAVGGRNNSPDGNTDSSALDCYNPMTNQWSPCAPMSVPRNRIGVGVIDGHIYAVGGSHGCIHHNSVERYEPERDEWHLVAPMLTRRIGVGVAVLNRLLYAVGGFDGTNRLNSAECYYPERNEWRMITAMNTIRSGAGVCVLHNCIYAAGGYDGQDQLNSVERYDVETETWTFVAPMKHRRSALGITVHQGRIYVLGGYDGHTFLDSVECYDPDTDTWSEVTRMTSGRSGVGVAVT
mVP24, sequence (P35256 whole entry): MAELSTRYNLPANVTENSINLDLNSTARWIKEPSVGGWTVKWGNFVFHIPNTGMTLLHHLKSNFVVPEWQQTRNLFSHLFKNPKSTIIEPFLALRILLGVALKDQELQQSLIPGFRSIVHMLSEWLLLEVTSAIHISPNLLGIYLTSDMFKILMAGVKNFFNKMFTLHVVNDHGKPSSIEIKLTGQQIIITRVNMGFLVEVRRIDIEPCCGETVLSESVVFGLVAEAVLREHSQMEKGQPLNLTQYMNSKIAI

For mVP24 (from UniProt P35256), the Kd is listed as 160 nM.
